Test: yeast display, Sf9 membrane polyspecificity reagent, FACS + sequencing; frameworks hold sequencing errors
Summary of the method: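 A synthetic nanobody library was expressed on Saccharomyces cerevisiae BJ5465 by galactose induction for 36–48 hours. The library was stained for 1 hour at 4 °C with 10% biotinylated, detergent-solubilized Sf9 membrane reagent and enriched with streptavidin microbeads before FACS. Low and high (top ~1%) gates were set on anti-HA fluorescence for expression and streptavidin fluorescence for reagent binding, and each polyreactivity label reflects the gate of origin.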

Sequence	polyreactivity (PSR sort gate)
QVQLVESGGGLVQAGGSLRLSCAASGSTFQGYAMGWYRQAPGKERELVAAISRSGSGTYYADSVKGRFTISRDNAKNTVYLQMNSLKPEDTAVYYCAKDDVRRSTSRHYYYWGHGTQVTVSS	high polyreactivity
QVQLEESGGGLVQAGGSLRLSCAASGSTFDNNGMGWYRQATGKERELVASITFNVGSTYYADSVKGRFTMSRDNAKNTVYLQMNSLKPEDTAVYYCGADDLNLSQALGYDFWGQGTQVTVSS	low polyreactivity
QVQLVETGGGLVQAGGSLRLSCAASGRIFHRNAMGWYRQAPGKEREFVAGITTGSSTYYADSVKGRFTISRDNAKNTVYLQMNSLKPEDTAVYYCAARYFIGSYRPRFDYWGQGTQVTVSS	high polyreactivity
QVQLVESGGGLVQAGGSLRLSCAASGYIFIWYDMGGYRQAPGKERELVAAISGSGGSTYYADSVKGRFTISRDNAKNTVYLQMNSLKPEDTAVYYCAAVPAHFYGYDYWGQGTQVTVSS	low polyreactivity
QVQLEESGGGLVQAGGSLRLSCAASGIIFRLYAMGRYRQAPGKERELVAAISSGGSTNYADSVKGRFTISRDNAKNTVYLQMNSLKPEDTAVYYCAAGKAHNYDYWGQGTQVTVSS	low polyreactivity
QVQLVESGGGLVQAGGSLRLSCAASGSTFRPYAMGGYRQAPGKERELVARITGSGDSTYYADSVKGRFTISRDNAKNTVYLQMNSLKPEDTAVYYCAREFVFSLSGFDYWGQGTQVSVSS	low polyreactivity
QVQLVESGGGLVQAGGSLRLSCAASGSTFQPYAMGWYREAPGKERELVATITWRGGRTYYADSVKGRFTISRDNAKYTVYLQMNSLKPEDTAVYYCNVAYRGFRYYYWGQGTQVNVSS	high polyreactivity
QVQLVESGGGLVQAGGSLRLSCAASGFTFYRYAMGWYRQAPGKEREFVASISWSGGSTYYADSVKGRFTISRDNAKNTVYLQMNSLKPEDTAVYYCAATSQAYWDLWSTYYTYYYWGQGTQVTVSS	high polyreactivity
QVQLVESGGGLVQAGGSLRLSCAASGRTFLPYAMGWYRQAPGKERELVAAITYSGGRTYYADSVKGRFTISRDNAKNTVYLQMNSLKPEDTAVYYCAASLWFGGGYWGLGTQVTVSS	high polyreactivity
QVQLVESGGGLVQAGGSLRLSCAASGGTLYTYAMGWYRQAPGKEWEFVAAITVSGGRTYYADSVKGRFPISRDNAKNTVYLQINSLKPEDTAVYYCAARYWSWRSFKVDYWGQGTQVTVSS	high polyreactivity
QVQLVESGGGLVQAGGSLRLSCAASGSTLSFNAMGWYRQAPGKERELVAGITYSGGSTYYADYVKGRFTISRDNAKNTVYLQMNSLKPEDTAVYYCNKASGVYYGHLDYWGQGTQVTVSS	low polyreactivity
QVQLVESGGGLVQAGGSLRLSCAASRRIFYWYAMGWYRQAPGKEREWVAAITWSGGSTYYADSVKGRFTISLDNAKNTVYLQMNSLKREDTAVYFCNAEVYWDVYPGLYYYDIYDYWGQGNQVTVSS	low polyreactivity
QVHHEESGGGLVQAGGSLRLSCAASGGIFYLNDMGWYRQAPGKERELVAAITGTGGNTYYADSVKGRFTISRDNAKNTVYLQMNSLKPEDTAVYYCAAQHYWVTSYLSSYDYWGQGTQVTVSS	low polyreactivity
QVQLVESGGGLVKAGGSLRLSCAASGSTFRRYAMGWYRLAPGKERELVAAITIGGSTYYADSVKGRFTISRDNAKNTVKLKMNSLKPEDTAVYSCNAGKTYLGDYWGQGTQVTVSS	high polyreactivity
QVQLVESGGGLVQAGGSLRLSCAASGSTFVVYAMGWSRQAPGKERELVAAISTSDTSTYYADSVKGRFTISRDNAKNTVYLQMNSLKPEDTAVYDCAADGTYVYINEYEYWGQGTQVTVSS	low polyreactivity
QVQLVESGGGLVQAGGSLRLSCAASGSTFGFYAMGWYRQAPGKERELVAAITGSGGSTYYADSVKGRFTISRDNAKNTVYLQMNSLKPEDTAVYYCNRYGVRYYRYDYWGQGTQVTVSS	high polyreactivity
QVQLVESGGGLVQAGGSLRLSCAASGFTFRRNAMGWYRQAPGKERELVAAITASGGRTYYADSVKGRFTISRDYAKNTVYLQMNSLKPEDTAVFYCAARLRNIYYFRMGYWGQGTKVTVSS	high polyreactivity
QVQLVESGGGLVQAGGSLLLSCDASGGTLDYYVMGWYRQAPGKERELVAAISSSGGSTYYADSVKGRFTISRDNAKNTVYLQMNCLNPEDTAVYYCAGDPSPYGDEYDYWVQGTQVTVSS	low polyreactivity
QVQLVESCGGLVQAGGSLRLSCAASGITFGRNTMGWYRQAPGKERELVAAIDSGGNTYADSVKGRFTISRDNAKNTVYLQMNSLKPEDTAVYYCAVDGGEFSSYGYWGQGTQVTVSS	low polyreactivity
QVQLVESGGGYVQAGGSLRLSCAASGSTFRYYAMGWYRQAPGKEREFVASITQSGGSTYYADSVMGRFTISRDNAKNTVYLQMISLKPEDTAVYYCAADVYSWVYLMDYWGQGTQVTVSS	low polyreactivity
QVQLVESGGGLVQAGGSLRLSCAASGFISTINVMGWYRQAPGKERELVAAITYIDGSTFYADSVKGRFTISRDNAKNTVYLQMNSLKPEDTAVYYCAADLYQWGAVFLYVRSTGLDYWGQGTQVTVSS	low polyreactivity
QVQLVESGGGLVQAGGSLRLSCAASGRTFPYYAMGWYRQAPGKERELVAAISSSGGSTYYADSVKGRFTISRDNAKNTVNLQMNSLKPEDTAVYYCAARAPYSYSGYGYWGQGTQVTVSS	high polyreactivity

Sequence	polyreactivity (PSR sort gate)
QVQLVESGGGLVQAGGSLRLSCAASGGTFRTYTMGWYRQAPGRVRELVAGISSRGGSTYYADSVKGRFTISRDNAKKTLYLQMNSLKPEDTAVYNCAVRHLNKRRDDYWGQGTQVTVSS	high polyreactivity
QVQLVESGGGLVQAGGTLRLRCAPSGSIFWGNAIGWYRQAPGKERELVAAIDWSGGSTYYADSVKGRFTISRDNAKNTVYLLMYSLKPEDTAVYFCAASGRYDYDYWGQGTQVTVSS	low polyreactivity
QVKLVESGGGLVQAGGSLRLRCAASGIIFDYYAMGWYRQAPGKERELVAAISKRGGSTYYADSVKGRFTISRDNAKNTVYLQMNSLKPEDTAVYYCAAVYAREAKRYDYWGQGTQVTVSS	high polyreactivity
QVQLVESGGRLLQAGGSLRLSCAASGRTFRRYAMGWYRPAPGKERELLAAISASGGSTYYADSVKGRFTISRDNAKNTVYLQMNSLKPEDTAVYYCAADWYSYLHGTKYGYWGQGTQVTVSS	high polyreactivity
QVQLVESGGGLVQAGGSRRLSCAASGSTFQYNAMGWYRQAPGKDREWVAAITGSGGSTYYADSVKGRFTISRDNSKNTVYLQMNSLKPEDTAVYYCAKRVRSFNWVLARHKYDYWGQGTQVTVSS	low polyreactivity
QVQLVESGGGLVQAGGSLRLSCAASGFTFRKNAMGWYRQAPGKERELVAAINSSGGSTYYADSVKGRFTISRDNAKNTVYLQMKSLKQEDTAVYSCNAVGRSLARPRGDYWGQGTQVTVSS	high polyreactivity
QVQLVESGGGLVQAGGSLRLSCAASGSTFQTYAMGWSRQAPGKERELVAAISFNGGSTYYADSVKGRFTISRDNAKNTVYLQMNSLKPEDTAVYYCAVEYTWATALYDGRHDYWGQGTQVTVSS	high polyreactivity
QDQLVESGGALVQAGGSLRLSCAASGFTYYGNAMGWYRQAPGKERELVAAISSSGGITYYADSVKGRFTISRDNAKNTVYLQMNSLKPEDTAVYYCAAVQGTPDYEYDSWGQGTQVTVSS	low polyreactivity
QVQLVESGGGLVQAGGSLRLSCAASGFTFYSYAMGWYRQAPGKEREFVAAGSTYYADSVKGRFTISRGNAKNTVYLQMNSLKPEDTAVYYCAADPWIYVQSYGYWGQGTQVTVSS	low polyreactivity
QVQLVESGGGLVQAGGSLRLSCAASGRTFGYYTMGWYRQAPGKERELVAAITWSGSTYYADSVKGRFTISRDNAKNTVYLQMNSLKPEDTAVYYCAVEIYYFVYGISYDYWGQGTQVTVSS	high polyreactivity
QVQLVESGGGLVQAGGSLRISCAPSGIIFEYYALGCSRQAPGKEREVVAAIFSGGSTYYADSVKGRFTISRDNAKNTVYLLMNSLKAEDNAVYYCAAEYLAWGQGTQVTVSS	high polyreactivity
QVQLVESGGGLVQAGGSLRLSCAASGIIFTGNAMGWYRQAPGKERELVAGITGSGGNTYYADSVKGRFTISRDNAKNTVYLQMNSLKPEDTAVYYCAARRHIFLLIIWSGRVDYWGQGTQVTVSS	low polyreactivity
QVQLVESGGGLVQAGGSLRLSCAASGRIFRYYTMGWYRQAPGKEREFVAAITLSGGRTYYADSVKGRFTISRDNAKNTVYLQMNSLKPEDTAVYYCAAYDRITRYDYWGQGTQVTVSS	high polyreactivity
QVQLVESGGGLVQAGGSLRLSCAASGFTFYGYAMGWYRQAPGKERELVAAISTRGSRTYYADSVKGRFTISRDNAKNTVYLQMNSLKPEDTAVYYCARRRGPSYGLDYWGQGTQVTVSS	high polyreactivity
QVQLVESGGGLVQAGGSLRLSCAASGRILHANAMGWYRQAPGKEREFVAAISVSGVSTYYADSVKGRFTISRDNAKNTVYLQMNSLKPEDTAVYYCNAETYSWYDYWGQGTQVTVSS	high polyreactivity
QVQLVESGGGLVQAGGSLRLSCAASGRIFYYYDMGWNRQAPGQERELVAAISFSDGITYYADSVKGRFTISRDNAKNTVYLQMNSLKPEDTAVYYCAAVYRYRNRREYDYWGQGTEVTVSS	high polyreactivity
QVQLVESGGGLVQAGGSLRLSCAASGITFDYYAMGWYRQSPGKERELVAAISYSAGSTYYADSVKGRFTISRDNAKNTVYLQMNSLKPEDTAVYYCAAETFTISSDYYYWGQGTQVTVSS	low polyreactivity
QVQLVESGGGLVQAGGSLRLSCAASGSIFYVYAMGRYRQAPGTEWELVAAISSGDISYYADSVKGRFTISRDNAKNTVYLQKNSLKPEDTAVYYCNAERLGNTLSPGGDDYWGQGTQVTVSS	low polyreactivity
QVQLVESGGGLVQAGGRLRLSCAASVSIFNPYTMGWYRQAPGKERELVAAISYRGGSTYYADSVKGRFTISRDNAKNTVYLQMNSLKREDTAVYYCAAQVRYLGYRYDYWGQGTQVTVSS	high polyreactivity
QVQLVESGGGLVQAGGSLRLSCAASGSTFKQYAMGLYRQAPGTERELVAVITWRGGRTYYADSVKGRFTISRDYAKNTVYLQMNSLKPEDTAVYYCAADYFSFIPGYDYWGQGTQVTVSS	high polyreactivity
QVQLVESGGGLVHAGGSLRLSCAASGRTFIAYAMGWYRQAPGKERELVADISLRGGSTYYADSVKGRFTISRDNAKNTVYLQMNSLKPEDTAVYYCNTRRLHGWLYGYEYWGQGTQVTVSS	low polyreactivity

— the nanobody polyreactivity screen of Harvey et al. (2022)
